Measured values reported in patent publication US20060257938A1, “Method of screening for drugs that block ligand binding to a lipid binding protein” (priority 2005, published 2006).
Residue numbers refer to the chain shown, from its start.

B1: 18V 31Y 73V 72A (protein, listed as Rattus norvegicus)
chain: AFDGTWKVDRNENYEKFVEKMGINVVKRKLYAHDNLKLTITQEGNKFTVKESSNFRNIDVVFELGVDFAYSAVDGTELTGTWTMEGNKLVGKFKRVDNGKELIAVREISGNELIQTYTYEGVEAKRIFKKE
modifications: PEPTIDE (1)...(131) wild-type rat intestinal fatty acid binding protein
B2: 18V 31I 55L 73V 72A (protein, listed as Rattus norvegicus)
chain: B1 chain with Y31I, F55L
modifications: PEPTIDE (1)...(131) wild-type rat intestinal fatty acid binding protein
B3: 14A 18Y 31W 73G 117V 72A (protein, listed as Rattus norvegicus)
chain: B1 chain with Y14A, V18Y, Y31W, V73G, Y117V
modifications: PEPTIDE (1)...(131) wild-type rat intestinal fatty acid binding protein
B4: 18V 31Y 73I 72A (protein, listed as Rattus norvegicus)
chain: B1 chain with V73I
modifications: PEPTIDE (1)...(131) wild-type rat intestinal fatty acid binding protein
B5: 78F 102I 72A (protein, listed as Rattus norvegicus)
chain: B1 chain with V18M, Y31G, V73A, L78F, L102I
modifications: PEPTIDE (1)...(131) wild-type rat intestinal fatty acid binding protein
B6: 38Q 62I 106I 117A 72A (protein, listed as Rattus norvegicus)
chain: B1 chain with V18M, Y31G, L38Q, F62I, V73A, R106I, Y117A
modifications: PEPTIDE (1)...(131) wild-type rat intestinal fatty acid binding protein
B7: 14I 18L 31W 73V 117G 72A (protein, listed as Rattus norvegicus)
chain: B1 chain with Y14I, V18L, Y31W, Y117G
modifications: PEPTIDE (1)...(131) wild-type rat intestinal fatty acid binding protein
B8: 14L 18L 31W 73W 117L 72A (protein, listed as Rattus norvegicus)
chain: B1 chain with Y14L, V18L, Y31W, V73W, Y117L
modifications: PEPTIDE (1)...(131) wild-type rat intestinal fatty acid binding protein
B9: 14I 18V 31W 73I 117V 72A (protein, listed as Rattus norvegicus)
chain: B1 chain with Y14I, Y31W, V73I, Y117V
modifications: PEPTIDE (1)...(131) wild-type rat intestinal fatty acid binding protein
B10: 38A 106V 117A 72A (protein, listed as Rattus norvegicus)
chain: B1 chain with V18M, Y31G, L38A, V73A, R106V, Y117A
modifications: PEPTIDE (1)...(131) wild-type rat intestinal fatty acid binding protein
B11: 14W 18L 117S 72A (protein, listed as Rattus norvegicus)
chain: B1 chain with Y14W, V18L, Y31G, V73A, Y117S
modifications: PEPTIDE (1)...(131) wild-type rat intestinal fatty acid binding protein
B12: 14L 18L 31L 73G 117V 72A (protein, listed as Rattus norvegicus)
chain: B1 chain with Y14L, V18L, Y31L, V73G, Y117V
modifications: PEPTIDE (1)...(131) wild-type rat intestinal fatty acid binding protein
B13: 38V 62V 117A 72A (protein, listed as Rattus norvegicus)
chain: B1 chain with V18M, Y31G, L38V, F62V, V73A, Y117A
modifications: PEPTIDE (1)...(131) wild-type rat intestinal fatty acid binding protein
B14: 18G 31W 73V 72A (protein, listed as Rattus norvegicus)
chain: B1 chain with V18G, Y31W
modifications: PEPTIDE (1)...(131) wild-type rat intestinal fatty acid binding protein
B15: 14L 18I 31L 73F 117A 72A (protein, listed as Rattus norvegicus)
chain: B1 chain with Y14L, V18I, Y31L, V73F, Y117A
modifications: PEPTIDE (1)...(131) wild-type rat intestinal fatty acid binding protein
B16: 14L 18L 73L 117A 72A (protein, listed as Rattus norvegicus)
chain: B1 chain with Y14L, V18L, Y31G, V73L, Y117A
modifications: PEPTIDE (1)...(131) wild-type rat intestinal fatty acid binding protein
B17: 62N 106F 117A 72A (protein, listed as Rattus norvegicus)
chain: B1 chain with V18M, Y31G, F62N, V73A, R106F, Y117A
modifications: PEPTIDE (1)...(131) wild-type rat intestinal fatty acid binding protein
B18: 72H 73Y 74G (protein, listed as Rattus norvegicus)
chain: B1 chain with V18M, Y31G, A72H, V73Y, D74G
modifications: PEPTIDE (1)...(131) wild-type rat intestinal fatty acid binding protein
B19: 14L 18T 31E 73G 117G 72A (protein, listed as Rattus norvegicus)
chain: B1 chain with Y14L, V18T, Y31E, V73G, Y117G
modifications: PEPTIDE (1)...(131) wild-type rat intestinal fatty acid binding protein

Assay: Probe fluorescence ratio response to arachidonic acid relative to ADIFAB2
Assay type: binding
Conditions: arachidonic acid; response relative to ADIFAB2
Method in brief: (§1)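 Each fatty acid's response was expressed relative to ADIFAB2, the rI-FABP-L72A probe, as ΔR/ΔRreference. ΔR is the change in the background-corrected two-wavelength intensity ratio R=Fλ1/Fλ2 from its analyte-free baseline R0. Emission was read near about 420-480 nm for unbound and about 495-580 nm for FFA-bound probe.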

Row | Molecule | DR/DR AA
1 | B1 | 2.400
2 | B2 | 2.273
3 | B3 | 0.365
4 | B4 | 1.946
5 | B5 | 2.093
6 | B6 | 1.656
7 | B7 | 2.037
8 | B8 | 1.772
9 | B9 | 1.553
10 | B10 | 1.492
11 | B11 | 0.976
12 | B12 | 1.180
13 | B13 | 0.984
14 | B14 | 0.774
15 | B15 | 1.297
16 | B16 | 0.905
17 | B17 | 1.265
18 | B18 | 0.600
19 | B19 | 1.236

Assay: Probe fluorescence ratio response to stearic acid relative to ADIFAB2
Assay type: binding
Conditions: response relative to ADIFAB2
Method in brief: as §1

Row | Molecule | DR/DR SA
20 | B1 | 1.330
21 | B2 | 1.233
22 | B3 | 0.158
23 | B4 | 1.139
24 | B5 | 1.877
25 | B6 | 0.663
26 | B7 | 0.606
27 | B8 | 0.294
28 | B9 | 0.283
29 | B10 | 0.065
30 | B11 | 0.297
31 | B12 | 0.170
32 | B13 | 0.495
33 | B14 | 0.489
34 | B15 | 0.077
35 | B16 | 0.031
36 | B17 | 0.490
37 | B18 | 0.052
38 | B19 | 0.413

Assay: Probe fluorescence ratio response to palmitic acid relative to ADIFAB2
Assay type: binding
Conditions: response relative to ADIFAB2
Method in brief: as §1

Row | Molecule | DR/DR PA
39 | B1 | 1.534
40 | B2 | 1.253
41 | B3 | 0.421
42 | B4 | 1.784
43 | B5 | 1.434
44 | B6 | 0.550
45 | B7 | 1.236
46 | B8 | 0.970
47 | B9 | 0.652
48 | B10 | 0.033
49 | B11 | 0.377
50 | B12 | 0.377
51 | B13 | 0.478
52 | B14 | 0.463
53 | B15 | 0.121
54 | B16 | 0.071
55 | B17 | 0.430
56 | B18 | 0.486
57 | B19 | 0.712

Assay: Probe fluorescence ratio response to palmitoleic acid relative to ADIFAB2
Assay type: binding
Conditions: response relative to ADIFAB2
Method in brief: as §1

Row | Molecule | DR/DR POA
58 | B1 | 2.376
59 | B2 | 2.285
60 | B3 | 0.883
61 | B4 | 2.528
62 | B5 | 2.022
63 | B6 | 0.473
64 | B7 | 1.770
65 | B8 | 2.059
66 | B9 | 1.411
67 | B10 | 0.121
68 | B11 | 0.811
69 | B12 | 0.180
70 | B13 | 0.668
71 | B14 | 0.770
72 | B15 | 0.235
73 | B16 | 0.410
74 | B17 | 0.341
75 | B18 | 0.986
76 | B19 | 1.072

Assay: Probe fluorescence ratio response to linolenic acid relative to ADIFAB2
Assay type: binding
Conditions: response relative to ADIFAB2
Method in brief: as §1

Row | Molecule | DR/DR LNA
77 | B1 | 2.605
78 | B2 | 2.433
79 | B3 | 0.940
80 | B4 | 2.537
81 | B5 | 2.322
82 | B6 | 0.930
83 | B7 | 1.960
84 | B8 | 1.640
85 | B9 | 1.495
86 | B10 | 0.541
87 | B11 | 0.835
88 | B12 | 1.139
89 | B13 | 1.153
90 | B14 | 0.705
91 | B15 | 0.639
92 | B16 | 0.641
93 | B17 | 0.756
94 | B18 | 0.591
95 | B19 | 1.133

Assay: Probe fluorescence ratio response to oleic acid relative to ADIFAB2
Assay type: binding
Conditions: response relative to ADIFAB2
Method in brief: as §1

Row | Molecule | DR/DR OA
96 | B1 | 2.349
97 | B2 | 2.254
98 | B3 | 0.518
99 | B4 | 2.007
100 | B5 | 2.506
101 | B6 | 1.167
102 | B7 | 1.756
103 | B8 | 1.085
104 | B9 | 0.887
105 | B10 | 0.368
106 | B11 | 0.904
107 | B12 | 0.031
108 | B13 | 1.668
109 | B14 | 0.942
110 | B15 | 0.300
111 | B16 | 0.355
112 | B17 | 0.864
113 | B18 | 0.140
114 | B19 | 1.096

Assay: Probe fluorescence ratio response to linoleic acid relative to ADIFAB2
Assay type: binding
Conditions: response relative to ADIFAB2
Method in brief: as §1

Row | Molecule | DR/DR LA
115 | B1 | 2.780
116 | B2 | 2.680
117 | B3 | 1.018
118 | B4 | 2.619
119 | B5 | 2.493
120 | B6 | 1.288
121 | B7 | 2.047
122 | B8 | 1.782
123 | B9 | 1.668
124 | B10 | 0.229
125 | B11 | 1.063
126 | B12 | 1.170
127 | B13 | 1.002
128 | B14 | 0.855
129 | B15 | 0.707
130 | B16 | 0.657
131 | B17 | 0.985
132 | B18 | 0.472
133 | B19 | 1.107
